Reference: patent publication US20240417469A1
pKd: −log10 of the molar value.

Experiments:
[1] = target: human CD3 on cells (human PBMC; Jurkat TCR/CD3 NFAT reporter cells) (human) (UniProt P07766); assay: FACS on human PBMC, PE anti-human IgG Fc secondary, geometric mean fluorescence
[2] = target: recombinant CD3D&E protein (human CD3-his tag) (human) (UniProt P04234); assay: SPR Biacore, Ab captured on Protein A
Chain of recombinant CD3D&E protein (human CD3-his tag) (human) (P04234 22-105 limits assumed, chain 1 of 2): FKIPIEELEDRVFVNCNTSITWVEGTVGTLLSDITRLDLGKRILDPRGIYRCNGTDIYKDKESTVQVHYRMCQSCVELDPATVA
Chain of recombinant CD3D&E protein (human CD3-his tag) (human) (P07766 23-126 limits assumed, chain 2 of 2, further chain): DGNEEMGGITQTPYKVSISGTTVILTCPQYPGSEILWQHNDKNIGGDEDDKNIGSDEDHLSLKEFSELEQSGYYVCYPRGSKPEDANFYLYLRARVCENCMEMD

Chain of human CD3 on cells (human PBMC; Jurkat TCR/CD3 NFAT reporter cells) (human) (P07766 23-207, chain 1 of 3): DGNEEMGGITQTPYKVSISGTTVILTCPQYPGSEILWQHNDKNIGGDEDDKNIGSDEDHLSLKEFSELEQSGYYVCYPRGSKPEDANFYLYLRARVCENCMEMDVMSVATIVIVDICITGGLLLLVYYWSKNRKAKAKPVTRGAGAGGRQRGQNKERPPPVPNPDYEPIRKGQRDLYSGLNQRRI
Chain of human CD3 on cells (human PBMC; Jurkat TCR/CD3 NFAT reporter cells) (human) (P04234 22-171, chain 2 of 3, further chain): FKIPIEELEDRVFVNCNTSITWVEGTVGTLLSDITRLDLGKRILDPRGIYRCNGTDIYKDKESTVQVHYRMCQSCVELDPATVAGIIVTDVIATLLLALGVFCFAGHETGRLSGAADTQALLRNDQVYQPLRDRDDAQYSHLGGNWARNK
Chain of human CD3 on cells (human PBMC; Jurkat TCR/CD3 NFAT reporter cells) (human) (P09693 23-182, chain 3 of 3, further chain): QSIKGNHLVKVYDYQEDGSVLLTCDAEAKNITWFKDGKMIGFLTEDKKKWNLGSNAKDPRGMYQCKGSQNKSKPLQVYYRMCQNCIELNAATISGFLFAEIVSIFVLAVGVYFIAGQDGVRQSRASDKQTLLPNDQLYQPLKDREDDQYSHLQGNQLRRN

EC50 (read off the curve) [1]: 0.04 nM
pKd [2]: 8.43
koff [2]: 0.00272 s⁻¹
kon [2]: 735000 M⁻¹ s⁻¹
Substance: OKT3 (antibody)
